Reference: the supplement of paper PMC9112550, “Optimization of the antimicrobial peptide Bac7 by deep mutational scanning” (BMC Biology, 2022)

What follows are sequences tested on Escherichia coli TOP10 (assay: shrunken log2 fold change of peptide-encoding DNA abundance (4.5 h post-induction vs induction); higher = less antimicrobial activity (less host growth inhibition)). Conditions: time post-induction: 4.5 h; library: site-saturation at positions 5, 18, 19, 20.
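Note: peptides expressed intracellularly from a pBAD plasmid library in pooled LB shake-flask culture, induced with 0.3% L-arabinose, DNA abundance read by NGS, three biological replicates, DESeq2 with apeglm shrinkage.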

| Sequence | shrunken log2 fold change |
| --- | --- |
| RRIRQRPPRLPRPRPRPMPGPRP | 0.0214 |
| RRIRARPPRLPRPRPRPHFKPRP | 0.00608 |
| RRIRDRPPRLPRPRPRPDCDPRP | 0.122 |
| RRIRKRPPRLPRPRPRPVEVPRP | 0.0844 |
| RRIRARPPRLPRPRPRPLCYPRP | -0.0201 |
| RRIRHRPPRLPRPRPRPTAFPRP | -0.00502 |
| RRIRCRPPRLPRPRPRPEDMPRP | 0.176 |
| RRIRFRPPRLPRPRPRPTQEPRP | 0.321 |
| RRIRTRPPRLPRPRPRPSGAPRP | 0.251 |
| RRIRVRPPRLPRPRPRPYGKPRP | -0.289 |
| RRIRLRPPRLPRPRPRPGYNPRP | -0.774 |
| RRIRVRPPRLPRPRPRPTKDPRP | -0.303 |
| RRIRSRPPRLPRPRPRPRPTPRP | 0.391 |
| RRIRQRPPRLPRPRPRPCWNPRP | -0.13 |
| RRIRMRPPRLPRPRPRPMFYPRP | -0.127 |
| RRIRKRPPRLPRPRPRPAYFPRP | -0.0128 |
| RRIRWRPPRLPRPRPRPDQHPRP | -0.00431 |
| RRIRKRPPRLPRPRPRPTEYPRP | 0.0661 |
| RRIRNRPPRLPRPRPRPACNPRP | -0.148 |
| RRIRVRPPRLPRPRPRPSTEPRP | -0.331 |
| RRIRCRPPRLPRPRPRPSFLPRP | -0.718 |
| RRIRFRPPRLPRPRPRPTGIPRP | -0.26 |
| RRIRDRPPRLPRPRPRPTNIPRP | -0.271 |
| RRIRCRPPRLPRPRPRPSCVPRP | -0.0959 |
| RRIRWRPPRLPRPRPRPVMGPRP | 0.37 |

| Sequence | shrunken log2 fold change |
| --- | --- |
| RRIRARPPRLPRPRPRPTANPRP | 0.401 |
| RRIRARPPRLPRPRPRPEQAPRP | 0.759 |
| RRIRLRPPRLPRPRPRPISEPRP | 0.00295 |
| RRIRYRPPRLPRPRPRPVSGPRP | -0.128 |
| RRIRARPPRLPRPRPRPALNPRP | 0.431 |
| RRIRHRPPRLPRPRPRPRPRPRP | 0.707 |
| RRIRDRPPRLPRPRPRPQWGPRP | -0.0612 |
| RRIRGRPPRLPRPRPRPNRDPRP | 0.0612 |
| RRIRCRPPRLPRPRPRPAQPPRP | 0.366 |
| RRIRDRPPRLPRPRPRPLHWPRP | -0.124 |
| RRIRWRPPRLPRPRPRPAMRPRP | 1.1 |
| RRIRVRPPRLPRPRPRPKDRPRP | -0.0469 |
| RRIRKRPPRLPRPRPRPWNQPRP | -0.0169 |
| RRIRGRPPRLPRPRPRPDIPPRP | 0.23 |
| RRIRMRPPRLPRPRPRPTDIPRP | 0.501 |
| RRIRWRPPRLPRPRPRPQGFPRP | -0.0818 |
| RRIRLRPPRLPRPRPRPITPPRP | 0.163 |
| RRIRLRPPRLPRPRPRPIMKPRP | -0.489 |
| RRIRCRPPRLPRPRPRPQTFPRP | -0.139 |
| RRIRLRPPRLPRPRPRPVIFPRP | -0.141 |
| RRIRPRPPRLPRPRPRPYPSPRP | -0.65 |
| RRIRDRPPRLPRPRPRPCDKPRP | -0.206 |
| RRIRPRPPRLPRPRPRPFWIPRP | -0.161 |
| RRIRDRPPRLPRPRPRPCIYPRP | -0.0518 |
| RRIRKRPPRLPRPRPRPDISPRP | -0.0841 |

| Sequence | shrunken log2 fold change |
| --- | --- |
| RRIRSRPPRLPRPRPRPPFQPRP | 0.073 |
| RRIRSRPPRLPRPRPRPPVPPRP | 0.378 |
| RRIRVRPPRLPRPRPRPQKGPRP | -0.036 |
| RRIRNRPPRLPRPRPRPNKYPRP | -0.774 |
| RRIRDRPPRLPRPRPRPITNPRP | -0.33 |
| RRIRERPPRLPRPRPRPFPDPRP | -0.00133 |
| RRIRHRPPRLPRPRPRPNLEPRP | 0.127 |
| RRIRNRPPRLPRPRPRPRYGPRP | -0.0289 |
| RRIRRRPPRLPRPRPRPYGAPRP | -0.171 |
| RRIRERPPRLPRPRPRPEMTPRP | -0.0236 |
| RRIRPRPPRLPRPRPRPLAMPRP | 0.193 |
| RRIRIRPPRLPRPRPRPKQFPRP | -0.328 |
| RRIRCRPPRLPRPRPRPRRWPRP | 0.646 |
| RRIRMRPPRLPRPRPRPREDPRP | 0.0544 |
| RRIRIRPPRLPRPRPRPSGSPRP | -0.17 |
| RRIRNRPPRLPRPRPRPKSWPRP | 0.432 |
| RRIRKRPPRLPRPRPRPYPLPRP | -0.095 |
| RRIRFRPPRLPRPRPRPATWPRP | 0.317 |
| RRIRYRPPRLPRPRPRPDFDPRP | -0.0161 |
| RRIRGRPPRLPRPRPRPSVPPRP | 0.215 |
| RRIRGRPPRLPRPRPRPQRHPRP | 0.338 |
| RRIRPRPPRLPRPRPRPSKDPRP | -0.451 |
| RRIRDRPPRLPRPRPRPQHLPRP | -0.444 |
| RRIRLRPPRLPRPRPRPKEHPRP | 0.227 |
| RRIRCRPPRLPRPRPRPREMPRP | 0.245 |

| Sequence | shrunken log2 fold change |
| --- | --- |
| RRIRDRPPRLPRPRPRPCVKPRP | -0.161 |
| RRIRFRPPRLPRPRPRPLQPPRP | 0.104 |
| RRIRGRPPRLPRPRPRPGCVPRP | 1.08 |
| RRIRYRPPRLPRPRPRPFGCPRP | -0.139 |
| RRIRQRPPRLPRPRPRPTCMPRP | -0.163 |
| RRIRQRPPRLPRPRPRPHDPPRP | 0.142 |
| RRIRSRPPRLPRPRPRPRWSPRP | 0.122 |
| RRIRVRPPRLPRPRPRPGVFPRP | 0.117 |
| RRIRIRPPRLPRPRPRPYLHPRP | -1.61 |
| RRIRIRPPRLPRPRPRPTHFPRP | -0.0417 |
| RRIRYRPPRLPRPRPRPVKIPRP | -0.0138 |
| RRIRLRPPRLPRPRPRPQMDPRP | -0.16 |
| RRIRIRPPRLPRPRPRPQNWPRP | -0.517 |
| RRIRNRPPRLPRPRPRPNFNPRP | -0.734 |
| RRIRNRPPRLPRPRPRPQYYPRP | -0.128 |
| RRIRVRPPRLPRPRPRPTVTPRP | 0.167 |
| RRIRTRPPRLPRPRPRPSWKPRP | -0.124 |
| RRIRHRPPRLPRPRPRPPKMPRP | -0.0472 |
| RRIRDRPPRLPRPRPRPVNCPRP | -0.328 |
| RRIRARPPRLPRPRPRPYTAPRP | -0.0946 |
| RRIRMRPPRLPRPRPRPQYNPRP | -0.934 |
| RRIRRRPPRLPRPRPRPRTQPRP | 0.19 |
| RRIRMRPPRLPRPRPRPSVDPRP | 0.508 |
| RRIRHRPPRLPRPRPRPRQEPRP | 0.0426 |
| RRIRHRPPRLPRPRPRPIRHPRP | -0.0447 |

| Sequence | shrunken log2 fold change |
| --- | --- |
| RRIRERPPRLPRPRPRPIRQPRP | 0.00357 |
| RRIRGRPPRLPRPRPRPLSQPRP | 0.872 |
| RRIRLRPPRLPRPRPRPLLGPRP | 0.0797 |
| RRIRCRPPRLPRPRPRPIMPPRP | -0.11 |
| RRIRKRPPRLPRPRPRPLNCPRP | -0.0221 |
| RRIRWRPPRLPRPRPRPQPKPRP | 0.294 |
| RRIRDRPPRLPRPRPRPGLPPRP | 0.245 |
| RRIRMRPPRLPRPRPRPQCDPRP | -0.0599 |
| RRIRVRPPRLPRPRPRPVDGPRP | 0.021 |
| RRIRARPPRLPRPRPRPSEHPRP | -0.301 |
| RRIRWRPPRLPRPRPRPKSTPRP | 0.126 |
| RRIRHRPPRLPRPRPRPFQEPRP | -0.00966 |
| RRIRWRPPRLPRPRPRPIKFPRP | -0.285 |
| RRIRNRPPRLPRPRPRPMTMPRP | 0.0125 |
| RRIRGRPPRLPRPRPRPCVNPRP | 0.0252 |
| RRIRYRPPRLPRPRPRPEVLPRP | -0.00228 |
| RRIRHRPPRLPRPRPRPMILPRP | -0.0484 |
| RRIRMRPPRLPRPRPRPGATPRP | 1.38 |
| RRIRPRPPRLPRPRPRPLYYPRP | -0.985 |
| RRIRCRPPRLPRPRPRPGFAPRP | 0.354 |
| RRIRCRPPRLPRPRPRPFRWPRP | 0.406 |
| RRIRRRPPRLPRPRPRPMQSPRP | 0.0774 |
| RRIRNRPPRLPRPRPRPNMHPRP | -0.433 |
| RRIRCRPPRLPRPRPRPGAPPRP | 0.734 |
| RRIRYRPPRLPRPRPRPCYEPRP | -0.246 |
